Biological target: T1, GZF1-Flag (UniProt Q4VBD9 1-706)
T1 sequence: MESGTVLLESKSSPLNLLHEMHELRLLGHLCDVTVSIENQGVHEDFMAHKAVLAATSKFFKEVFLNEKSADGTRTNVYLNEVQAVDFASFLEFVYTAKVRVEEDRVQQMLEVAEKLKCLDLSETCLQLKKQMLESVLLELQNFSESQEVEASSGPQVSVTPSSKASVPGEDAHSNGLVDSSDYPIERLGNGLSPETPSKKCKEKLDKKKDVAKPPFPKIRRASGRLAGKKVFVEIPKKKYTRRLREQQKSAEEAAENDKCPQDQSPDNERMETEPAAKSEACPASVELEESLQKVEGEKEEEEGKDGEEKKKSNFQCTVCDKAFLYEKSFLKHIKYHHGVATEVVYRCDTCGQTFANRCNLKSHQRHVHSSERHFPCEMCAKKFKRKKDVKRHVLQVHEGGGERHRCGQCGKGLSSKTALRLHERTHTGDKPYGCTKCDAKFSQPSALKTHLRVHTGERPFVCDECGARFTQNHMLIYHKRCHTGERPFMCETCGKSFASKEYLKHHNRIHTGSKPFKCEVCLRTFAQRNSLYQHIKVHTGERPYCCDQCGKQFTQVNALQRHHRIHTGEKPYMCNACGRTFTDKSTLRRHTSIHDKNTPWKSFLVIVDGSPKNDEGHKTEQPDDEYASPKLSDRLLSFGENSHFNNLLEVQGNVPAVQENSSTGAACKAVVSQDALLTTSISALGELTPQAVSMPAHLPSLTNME
Assay: PBM

## GAGGCCATTACGGTAATGCCTCCTGGCATTACCGTAATGGCCTCACACTC (structured_DNA) [Gzf1_bs_unmethylated]
  binding result: binds
